What was measured:
human Y5 receptor = target: T1, human Y5 receptor (Homo sapiens, UniProt Q15761); conditions: uncompeted specific binding at 50 pM [125I]agonist as percent of the specific binding of [125I]hNPY; human Y5 in HEK293 cells; ± S.E.M.; SEM
T1 sequence (Q15761 1-445): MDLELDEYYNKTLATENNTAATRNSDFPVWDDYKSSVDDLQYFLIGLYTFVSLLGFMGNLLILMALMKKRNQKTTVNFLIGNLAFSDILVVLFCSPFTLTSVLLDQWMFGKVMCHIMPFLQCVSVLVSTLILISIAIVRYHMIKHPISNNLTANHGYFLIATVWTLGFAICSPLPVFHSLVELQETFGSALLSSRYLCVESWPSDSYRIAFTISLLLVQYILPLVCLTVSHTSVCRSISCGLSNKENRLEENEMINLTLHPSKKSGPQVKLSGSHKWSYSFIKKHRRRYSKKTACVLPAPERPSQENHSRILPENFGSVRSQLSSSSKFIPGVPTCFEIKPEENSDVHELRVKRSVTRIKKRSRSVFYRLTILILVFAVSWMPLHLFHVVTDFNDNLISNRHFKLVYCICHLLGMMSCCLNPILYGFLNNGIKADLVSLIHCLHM

hY1-CHO = assay: Non-specific binding of agonists, saturation and time course, hY1-CHO; conditions: hyperbolic fit; 50 pM tracer at 100 nM unlabeled peptide over 3, 6, 10, 20 and 30 min at 25 °C

human (Leu^31,Pro^34) peptide YY [LP-hPYY]
% of NPY binding, Y5 (human Y5 receptor): 96.5 ±16%
Half-period of equilibration of non-specific binding, hY1-CHO (hY1-CHO): 1.72 ± 0.11 min

Source: paper PMC3025077 (Peptides, 2010)
